Our source for the response and response (relative ratio) values is article PMC11115209.

In test [1] the target is His6-TBC1D15 (UniProt Q8TC07). Put plainly: immunoprecipitation with Flag beads, immunoblot band quantification. Conditions: HA-SUMO2 co-expressed, read off a plot, scale: relative band intensity.
Test [2] concerns the target His6-TBC1D15 (UniProt Q8TC07). Put plainly: HA beads pulldown, immunoblot band quantification. The following applies: read off a plot.
[3] abbreviates: + SulF (GST-SulF), parent: est. 0.16.

Chain of UniProt Q8TC07 (Q8TC07 whole entry, looked up): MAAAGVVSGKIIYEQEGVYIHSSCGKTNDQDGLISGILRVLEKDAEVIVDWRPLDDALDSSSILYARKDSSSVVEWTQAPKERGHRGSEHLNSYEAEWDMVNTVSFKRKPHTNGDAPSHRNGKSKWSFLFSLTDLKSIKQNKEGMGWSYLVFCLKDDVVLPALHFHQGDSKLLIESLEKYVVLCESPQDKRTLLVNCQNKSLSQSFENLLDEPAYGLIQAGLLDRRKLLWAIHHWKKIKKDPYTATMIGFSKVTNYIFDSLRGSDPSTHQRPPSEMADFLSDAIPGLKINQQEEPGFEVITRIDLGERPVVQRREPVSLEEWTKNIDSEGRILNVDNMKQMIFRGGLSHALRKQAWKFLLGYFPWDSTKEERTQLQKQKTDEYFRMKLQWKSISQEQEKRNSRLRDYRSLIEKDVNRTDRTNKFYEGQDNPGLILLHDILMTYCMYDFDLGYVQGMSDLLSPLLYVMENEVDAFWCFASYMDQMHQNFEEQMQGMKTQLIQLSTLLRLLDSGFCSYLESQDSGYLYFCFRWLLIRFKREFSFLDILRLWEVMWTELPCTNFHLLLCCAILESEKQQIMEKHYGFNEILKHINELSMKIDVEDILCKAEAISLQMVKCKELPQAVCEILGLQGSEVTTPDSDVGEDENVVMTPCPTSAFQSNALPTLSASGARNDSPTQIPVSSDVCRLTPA

Regarding “Flag-Rab7 WT (Rab7 part of m4) Q67L; K175R”, the response with His6-TBC1D15 [1] (+ GST, parent: est. 0.25) was determined as 1; with His6-TBC1D15 [1] (setting [3]) it was 1.1.

As for Flag-Rab7 WT (Rab7 part of m4) Q67L, the response (relative ratio) with His6-TBC1D15 [2] (Buffer added after 1 h incubation) was determined as 1; in the test with His6-TBC1D15 [2] (GST added after 1 h incubation) it was 1.1; in the test with His6-TBC1D15 [2] (GST-SulF added after 1 h incubation (competition)) it was 0.34; in the test with His6-TBC1D15 [2] (GST-SulFIV/AA added after 1 h incubation (competition)) it was 1.1. Also, the response in the test with His6-TBC1D15 [1] (+ GST, parent: est. 0.25) turned out to be 0.88; in the test with His6-TBC1D15 [1] (setting [3]) it was 0.48.

In the case of Flag-Rab7 WT (Rab7 part of m4) T22N, the response in the test with His6-TBC1D15 [1] (+ GST, parent: est. 0.25) is 0.57; in the test with His6-TBC1D15 [1] (setting [3]), 0.31.
